From the supplement of paper PMC12042874 come the findings set out here.

A short description of the series: amyloid nucleation score (Sup35N fusion, yeast selection) (log enrichment); library NNK2; higher = more nucleation; inactive = no reads after selection. An outline of the steps: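 After 24 hours of induction with 100 μM copper sulfate, psi-negative yeast expressing peptides of 20 random codons fused to Sup35N were grown for 7 days at 30°C on medium lacking adenine and uracil. Input and output plasmid inserts were sequenced with Illumina, and sequences with under 100 input reads were discarded. Scores for nucleation are the DiMSum log enrichment of output over input reads, centred on the mode score of non-aggregating sequences.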

± gives the uncertainty stated by the source.

HSGCCRYLLNNWLYSYMQFY displayed an amyloid nucleation score of 4.08 ± 0.05.

IWVYFTQHRWRLGKNVGQSC displayed an amyloid nucleation score of 0.586 ± 0.51.

In turn, HYRGSENGVEPSFLYGVSLL returned an amyloid nucleation score of 0.079 ± 0.49.

In turn, YADKSKTCNYFSQLP registered an amyloid nucleation score of 0.016 ± 1.1.

Consider SISLCGVGVRWESVTAGNVC, for which the amyloid nucleation score stood at 0.51 ± 0.36.

The substance KLSSKDHRFYKVSMKRV returned an amyloid nucleation score of 0.247 ± 0.8.

On to LYTQESYSDSFVNSLRCSKV, for which the amyloid nucleation score was -0.064 ± 1.1.

Take SVRKRKSNNAIPANAPNKI: the amyloid nucleation score amounted to 0.513 ± 0.35.

LMYFMNGL yielded an amyloid nucleation score of 0.045 ± 0.63.

For the substance GALKSMLQVFQEGLLHDWSI, the amyloid nucleation score was -0.936 ± 0.31.

LVDHLGFMRMSMAGSWWVEG gave an amyloid nucleation score of 0.42 ± 0.8.

ATTVNK yielded an amyloid nucleation score of 5.76 ± 0.061.

CVPVYVKRIECHLPSGCTAV had an amyloid nucleation score of -0.345 ± 0.3.

Turning to DTGNMVSEKPGGILSDMGRI, the amyloid nucleation score entry is “inactive”.

With HEVVKFK, the amyloid nucleation score turned out to be 0.016 ± 1.1.

QKDLVSRGQYEVIVDSGTLG returned an amyloid nucleation score of 4.446 ± 0.035.

With TLKACKNFYGGIFCNHGSES, the amyloid nucleation score is -0.72 ± 1.1.

For IIKLGESNPKSPFGTLYYGF, the amyloid nucleation score is -0.213 ± 1.1.

RFYCRRT: the amyloid nucleation score stood at 0.199 ± 0.33.

Regarding RDYGQFCRSFGHLGLFLGSQ, the amyloid nucleation score result is “inactive”.

NMDKRSNGFRKCMWLS gave an amyloid nucleation score of -0.883 ± 1.1.

On to RKCQIRVMKNSD, for which the amyloid nucleation score was -0.858 ± 1.1.

With TQRHATENLKFTTWAYKSRE, the amyloid nucleation score came to 0.994 ± 0.16.

Substance RMSEYFDGLHRWFSGCWCAL came in with an amyloid nucleation score of 0.256 ± 0.65.

Turning to LNLILIDFKTSRCVERPFRE, the amyloid nucleation score was determined as 7.052 ± 0.051.

On to GCTRE, for which the amyloid nucleation score worked out at 1.36 ± 0.53.

On to TSSSYTWLIKSMRVFTNYNV, for which the amyloid nucleation score was -1.32 ± 0.38.

For the substance LGLMLIDLIWLRRYIYSWVR, the amyloid nucleation score amounted to 0.338 ± 0.34.

The substance QQMSIHRYADGVFELGIPVM came in with an amyloid nucleation score of 0.11 ± 0.54.

Consider LPVQAYAS, for which the amyloid nucleation score entry was “inactive”.

As for YLSVYCFMPVWDKWYRS, the amyloid nucleation score was -1.57 ± 0.38.

The substance WHSVHYNLFCCF registered an amyloid nucleation score of 8.689 ± 0.041.

The substance IHESSSF yielded an amyloid nucleation score of -0.47 ± 1.1.

The substance LMATHQPGTFMAGCTTGSEH displayed an amyloid nucleation score of 0.914 ± 0.18.

Substance FYQRLMSLTTMYLIQRHSL came in with an amyloid nucleation score of -0.038 ± 0.74.

As for SVLRSNRIVDLSIL, the amyloid nucleation score result is “inactive”.

AFRPVSSIGLCRWYMKRWNS returned an amyloid nucleation score of 0.542 ± 0.19.

Consider ASGEVMYVNHYVFPQAFTDE, for which the amyloid nucleation score entry was “inactive”.

In the case of RGSSLCYLRKGGFGWQGVVG, the amyloid nucleation score was 0.733 ± 0.56.

On to RIMISSIELDNCWYILGLSA, for which the amyloid nucleation score result is “inactive”.

Turning to FYHLLLTFGKIVVVQAAWSM, the amyloid nucleation score stood at 0.981 ± 0.51.

LSGLEDMSISSNDYSSDVAR showed an amyloid nucleation score of 0.45 ± 0.8.

For the substance LEVCFWFRNSVTKVSMSACL, the amyloid nucleation score is -1.06 ± 0.63.

SRPWNYCRDLWTSVHTGLLS: the amyloid nucleation score worked out at 0.547 ± 0.36.

MDVES gave an amyloid nucleation score of -0.192 ± 0.45.

In the case of DSRTFGITYYNDVLITGLCR, the amyloid nucleation score was -0.709 ± 0.39.

NSQTYTGCAVGYVLVNVMGL: the amyloid nucleation score worked out at 6.474 ± 0.033.

VHVCVVACFACFSANSEKGG: the amyloid nucleation score was 10.79 ± 0.042.

As for DDYVWCSYRLMFKSSHEALL, the amyloid nucleation score was -1.24 ± 1.1.

In turn, FAYISRFKGG came in with an amyloid nucleation score of 4.22 ± 0.059.

For RNCRDNYYSWRFKHLNRDRD, the amyloid nucleation score was -0.076 ± 0.61.

For STSECLK, the amyloid nucleation score entry was “inactive”.

Consider SIVSTGFVRDLNRTRCYSGG, for which the amyloid nucleation score stood at 0.158 ± 0.56.

ICGPLTRRVIDCGAYTKY gave an amyloid nucleation score of -0.19 ± 0.26.

Turning to CYNALWLFGNHAKTAHGLGH, the amyloid nucleation score amounted to 0.709 ± 0.48.

The substance VMCEEGLALRRCTGWLMFTG yielded an amyloid nucleation score of 1.11 ± 0.28.

CDSARFEGNVEAAR yielded an amyloid nucleation score of -0.134 ± 0.34.

KLMPLTTIPDEVWYFIGYRL yielded an amyloid nucleation score of -0.501 ± 0.32.

The substance TRMDNAY displayed an amyloid nucleation score of -0.132 ± 0.65.

With LVRPFWTLRYKTYHRSPVGR, the amyloid nucleation score came out at 1.59 ± 0.15.

As to LLKLTYTSM, the amyloid nucleation score was found to be 7.032 ± 0.037.

In turn, IDYLDTCFAVCFVGYTVCPT came in with an amyloid nucleation score of 0.111 ± 0.5.

For NQNIVVAVEVQVWFICNFVH, the amyloid nucleation score turned out to be 3.08 ± 0.1.

In turn, GRWLSFKFSDDRQRVRYRVH gave an amyloid nucleation score of -0.158 ± 0.63.

IVNLPSYYRASRQEDVVKGR returned an amyloid nucleation score of 0.75 ± 0.36.

In turn, GWSSSHVWVGLNS registered an amyloid nucleation score of 2.44 ± 0.21.

In turn, WSSERWPEWIG displayed an amyloid nucleation score of 0.027 ± 0.24.

With YIDRVTYRLSTGSTMEAWSA, the amyloid nucleation score came out at 0.688 ± 0.15.

STELFLS returned an amyloid nucleation score of -0.251 ± 0.28.

Regarding SVTPWTMNNSQYILMAYRVK, the amyloid nucleation score is 0.283 ± 0.34.

In turn, LANRPCWFLQRARAMV gave an amyloid nucleation score of 0.959 ± 0.74.

FFSNL came in with an amyloid nucleation score of 0.119 ± 0.57.

As for WFVGFSMAYWNERDAGRPGM, the amyloid nucleation score turned out to be 1.8 ± 0.15.

QIPCCWGPYVWSRAMGCSLE yielded an amyloid nucleation score of 1.78 ± 0.15.

MKNFNVYSTYWLCMGEYGCL yielded an amyloid nucleation score of 6.34 ± 0.078.

The substance MVGNSNAPARVLCTVSKFGV displayed an amyloid nucleation score of 0.587 ± 0.33.

For VSLLCIFVAYGNWVMNGDDP, the amyloid nucleation score was -0.136 ± 0.62.

As for SHSGIFSDAAHDVLGGGEEK, the amyloid nucleation score was 0.503 ± 0.8.

Substance TSIYLVLGYIFESATRLF returned an amyloid nucleation score of 0.144 ± 0.79.

For the substance GFHLQMEEVASYFLEIRPFC, the amyloid nucleation score stood at 0.02 ± 0.79.

Substance KGCVLCNIFCRSKGVVGSTL returned an amyloid nucleation score of 8.737 ± 0.035.

FYMNPRRYRGLVIMFFSSPV showed an amyloid nucleation score of -1.27 ± 1.1.

As for HLGRYAVKMCYWKGLFFYNN, the amyloid nucleation score was 0.29 ± 0.74.

The substance AGVWHSSLFITIQGVLNFGY displayed an amyloid nucleation score of 6.017 ± 0.02.

For the substance RNFPMVFCAMV, the amyloid nucleation score entry is “inactive”.

EYHLDHDFSPMGMAPRH: the amyloid nucleation score was found to be 0.049 ± 0.63.

In turn, EFRTAFLVI yielded an amyloid nucleation score of 0.138 ± 1.1.

As to SGAVHFQRRASCEGQDMLCW, the amyloid nucleation score was -0.028 ± 0.26.

Take SCDWRAGPSSATRTR: the amyloid nucleation score was 1.24 ± 0.35.

LTMCICWLTQCMT displayed an amyloid nucleation score of 6.283 ± 0.056.

As for CVRDTLIETFHSVFNPHRRV, the amyloid nucleation score worked out at 0.983 ± 0.29.

DVMYFGASLGTFVGVIADWE: the amyloid nucleation score result is “inactive”.

Take GSKRCSFRGLCIIYSVSMCS: the amyloid nucleation score was found to be 6.996 ± 0.044.

GSGNT: the amyloid nucleation score was 0.444 ± 0.56.

The substance CIRVGSQNVMFPIDSEPSDL gave an amyloid nucleation score of 0.482 ± 0.46.

For the substance EYAYILELFYQCFVMPYTLV, the amyloid nucleation score turned out to be 0.392 ± 0.51.

As to TIFFRCHWIRGLLVHLMF, the amyloid nucleation score result is “inactive”.

Take CGVMKNYDESKTYGLGLG: the amyloid nucleation score was determined as 3.51 ± 0.1.

In turn, GHAIWSSIVFVGWNLRGDS came in with an amyloid nucleation score of 0.065 ± 0.46.

For the substance VGAYPEEKR, the amyloid nucleation score was -0.013 ± 0.38.

The substance SVYGKFLYF came in with an amyloid nucleation score of 2.23 ± 0.11.

The substance PSVVVSNTYIGSPGYKRIWF returned an amyloid nucleation score of 7.844 ± 0.071.

Turning to PLMRGECGALLRLMFNTVS, the amyloid nucleation score entry is “inactive”.

LLMVFHTTKY yielded an amyloid nucleation score of 6.665 ± 0.026.

With CEIHYIIRQRSPVLSNRVQR, the amyloid nucleation score result was “inactive”.

As to SIFITATCNVH, the amyloid nucleation score entry was “inactive”.

In the case of FNTNRNEMCSML, the amyloid nucleation score is -0.476 ± 1.1.

Substance MTTALDGSLYVWCQCAVDVI gave an amyloid nucleation score of 0.379 ± 0.54.

With LTVRS, the amyloid nucleation score is -0.42 ± 0.76.

For ILINCSRWEGRTSCVTLAQQ, the amyloid nucleation score was determined as 2.27 ± 0.12.

NLAGKGAITDRFSQVRSGQS came in with an amyloid nucleation score of 1.4 ± 0.25.

As for HVYVGL, the amyloid nucleation score is -0.578 ± 1.1.

For VFTSYFLLFICLGYCEFYGD, the amyloid nucleation score was 4.299 ± 0.042.

As for SLSERLVILMTWCTFVVSAQ, the amyloid nucleation score came to 1.17 ± 0.29.

Take PINVRNYKRVCGGMVV: the amyloid nucleation score entry was “inactive”.

Consider RYTYRHNVFTNMSLVYNTMP, for which the amyloid nucleation score stood at 2.88 ± 0.11.

Consider SLVKVGDKRYMFVSTQGKSL, for which the amyloid nucleation score was determined as 0.055 ± 0.42.

For GYAWPRGTSGVA, the amyloid nucleation score was 0.353 ± 0.4.

In turn, FILVCWISIFGLFMIPGMWD displayed an amyloid nucleation score of -1.13 ± 0.64.

In turn, KIYERPAITDFGSQVD yielded an amyloid nucleation score of -0.505 ± 0.21.

In turn, GNCLEYIVRNTIANKRSRML yielded an amyloid nucleation score of -0.114 ± 1.

FSGDGCRDSA gave an amyloid nucleation score of 0.307 ± 0.56.

In turn, LYDYYQICINGGRVFSDFPC returned an amyloid nucleation score of -0.474 ± 0.79.

Turning to AARFELYSNWS, the amyloid nucleation score was found to be 2.05 ± 0.21.

In turn, PMVYRYKGRHIN showed an amyloid nucleation score of -1.27 ± 0.62.

Regarding RTIANDWHSCFSGRNLHSSW, the amyloid nucleation score amounted to 0.808 ± 0.74.

For LGTFKGKSEGPVV, the amyloid nucleation score came out at 0.616 ± 0.64.

Turning to YVPDVLTMYYGHTFTFDCGR, the amyloid nucleation score entry is “inactive”.

As for VGSKWLNGSRGKRLELRIGR, the amyloid nucleation score was determined as 4.03 ± 0.12.

In turn, YKRIHSSKFRPDYSHMV showed an amyloid nucleation score of -0.403 ± 1.

DIMLAPHNSVDNGSRKEYGA displayed an amyloid nucleation score of 0.424 ± 0.64.

For LSCRWHCIVTLDVAAYNEPE, the amyloid nucleation score amounted to 5.765 ± 0.044.

As to TGVYRWSEMSMVMFFFHVEC, the amyloid nucleation score is -0.226 ± 0.63.

VPSSNFVWVFLRLKS had an amyloid nucleation score of -0.996 ± 0.49.

In turn, DIRCDLGRVFN gave an amyloid nucleation score of -0.17 ± 0.79.

Regarding PAWAHVSLRLMLFYWGYLFY, the amyloid nucleation score entry is “inactive”.

As to MYRVEGL, the amyloid nucleation score entry was “inactive”.

MLIQVCALEGRYEVTQCVGG: the amyloid nucleation score is 1.82 ± 0.12.

Consider QYVMERYWRDWFKRMMLLFS, for which the amyloid nucleation score was 0.584 ± 0.27.
